# Test results published in article PMC11098746 (2024).
# T1: ADP141
# T1 chain: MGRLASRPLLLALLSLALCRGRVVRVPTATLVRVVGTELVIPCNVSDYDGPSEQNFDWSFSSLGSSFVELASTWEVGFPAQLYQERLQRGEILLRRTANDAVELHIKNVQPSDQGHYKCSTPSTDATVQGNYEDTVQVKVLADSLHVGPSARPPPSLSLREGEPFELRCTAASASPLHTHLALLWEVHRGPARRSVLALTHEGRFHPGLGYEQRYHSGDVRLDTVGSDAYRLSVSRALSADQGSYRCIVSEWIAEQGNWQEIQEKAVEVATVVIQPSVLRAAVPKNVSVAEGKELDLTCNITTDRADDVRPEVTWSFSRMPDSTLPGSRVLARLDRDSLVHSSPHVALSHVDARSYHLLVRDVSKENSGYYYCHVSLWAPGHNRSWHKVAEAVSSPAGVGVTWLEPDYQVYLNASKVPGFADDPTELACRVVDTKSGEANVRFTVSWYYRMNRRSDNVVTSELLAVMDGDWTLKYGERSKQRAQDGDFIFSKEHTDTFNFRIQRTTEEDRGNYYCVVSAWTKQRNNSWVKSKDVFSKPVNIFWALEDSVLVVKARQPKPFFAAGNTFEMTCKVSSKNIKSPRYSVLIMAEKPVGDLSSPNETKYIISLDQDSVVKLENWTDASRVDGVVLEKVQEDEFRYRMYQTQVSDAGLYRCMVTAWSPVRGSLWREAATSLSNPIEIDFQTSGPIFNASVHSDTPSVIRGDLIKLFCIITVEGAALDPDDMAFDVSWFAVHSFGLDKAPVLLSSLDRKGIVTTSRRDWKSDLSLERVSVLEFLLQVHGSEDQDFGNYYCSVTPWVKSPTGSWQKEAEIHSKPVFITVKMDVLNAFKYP
# T2: ADP104
# T2 chain: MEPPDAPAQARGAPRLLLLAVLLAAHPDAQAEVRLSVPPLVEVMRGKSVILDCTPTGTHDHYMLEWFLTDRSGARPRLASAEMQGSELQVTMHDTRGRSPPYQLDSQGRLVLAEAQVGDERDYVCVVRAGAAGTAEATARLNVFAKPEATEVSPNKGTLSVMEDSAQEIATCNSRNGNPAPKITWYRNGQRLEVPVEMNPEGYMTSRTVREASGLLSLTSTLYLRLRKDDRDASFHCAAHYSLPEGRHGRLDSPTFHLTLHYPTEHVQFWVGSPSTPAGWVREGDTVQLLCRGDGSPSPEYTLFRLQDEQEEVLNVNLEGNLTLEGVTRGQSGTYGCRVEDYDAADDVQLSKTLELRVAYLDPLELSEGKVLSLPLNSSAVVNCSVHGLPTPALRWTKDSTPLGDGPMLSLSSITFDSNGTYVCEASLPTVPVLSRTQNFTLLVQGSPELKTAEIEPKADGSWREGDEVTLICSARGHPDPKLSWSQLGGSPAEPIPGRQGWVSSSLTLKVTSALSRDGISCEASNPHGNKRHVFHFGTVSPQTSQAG
# T3: ADP296
# T3 chain: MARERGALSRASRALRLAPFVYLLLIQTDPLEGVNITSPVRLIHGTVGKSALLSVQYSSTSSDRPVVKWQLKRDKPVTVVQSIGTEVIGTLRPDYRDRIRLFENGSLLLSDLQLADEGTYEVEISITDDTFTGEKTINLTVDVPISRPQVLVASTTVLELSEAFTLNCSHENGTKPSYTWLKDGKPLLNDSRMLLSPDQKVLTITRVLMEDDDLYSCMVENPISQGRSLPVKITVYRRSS
# T4: ADP325
# T4 chain: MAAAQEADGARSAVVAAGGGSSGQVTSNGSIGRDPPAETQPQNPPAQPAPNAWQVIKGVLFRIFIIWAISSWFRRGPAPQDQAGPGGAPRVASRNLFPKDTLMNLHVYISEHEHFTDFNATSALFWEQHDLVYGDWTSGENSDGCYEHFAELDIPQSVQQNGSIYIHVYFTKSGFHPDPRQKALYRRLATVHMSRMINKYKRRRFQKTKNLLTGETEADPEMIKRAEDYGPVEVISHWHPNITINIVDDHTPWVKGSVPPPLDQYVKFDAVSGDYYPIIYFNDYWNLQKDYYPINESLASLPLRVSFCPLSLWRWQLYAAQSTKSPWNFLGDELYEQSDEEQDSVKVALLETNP
# T5: ADP103
# T5 chain: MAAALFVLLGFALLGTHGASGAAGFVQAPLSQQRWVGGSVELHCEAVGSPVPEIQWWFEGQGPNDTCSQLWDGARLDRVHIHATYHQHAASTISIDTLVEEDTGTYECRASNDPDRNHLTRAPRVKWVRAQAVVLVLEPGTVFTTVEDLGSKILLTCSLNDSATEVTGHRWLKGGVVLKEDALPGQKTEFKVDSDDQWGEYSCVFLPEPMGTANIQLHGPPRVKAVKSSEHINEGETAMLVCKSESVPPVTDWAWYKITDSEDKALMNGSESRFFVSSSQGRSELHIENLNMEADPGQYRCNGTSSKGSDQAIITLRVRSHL
# T6: ADP101
# T6 chain: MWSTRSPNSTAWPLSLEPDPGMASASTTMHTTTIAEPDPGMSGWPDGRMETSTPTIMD
# T7: ADP285
# T7 chain: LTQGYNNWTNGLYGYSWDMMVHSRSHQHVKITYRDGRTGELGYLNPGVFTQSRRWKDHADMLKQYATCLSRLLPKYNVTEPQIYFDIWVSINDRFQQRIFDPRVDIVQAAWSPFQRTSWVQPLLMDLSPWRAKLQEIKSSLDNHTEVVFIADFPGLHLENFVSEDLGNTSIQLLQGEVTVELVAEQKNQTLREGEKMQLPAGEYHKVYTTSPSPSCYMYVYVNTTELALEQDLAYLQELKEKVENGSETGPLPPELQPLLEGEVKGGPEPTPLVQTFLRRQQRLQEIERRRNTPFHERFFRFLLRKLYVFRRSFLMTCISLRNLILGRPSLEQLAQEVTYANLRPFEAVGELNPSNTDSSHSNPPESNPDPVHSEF
# T8: ADP360
# T8 chain: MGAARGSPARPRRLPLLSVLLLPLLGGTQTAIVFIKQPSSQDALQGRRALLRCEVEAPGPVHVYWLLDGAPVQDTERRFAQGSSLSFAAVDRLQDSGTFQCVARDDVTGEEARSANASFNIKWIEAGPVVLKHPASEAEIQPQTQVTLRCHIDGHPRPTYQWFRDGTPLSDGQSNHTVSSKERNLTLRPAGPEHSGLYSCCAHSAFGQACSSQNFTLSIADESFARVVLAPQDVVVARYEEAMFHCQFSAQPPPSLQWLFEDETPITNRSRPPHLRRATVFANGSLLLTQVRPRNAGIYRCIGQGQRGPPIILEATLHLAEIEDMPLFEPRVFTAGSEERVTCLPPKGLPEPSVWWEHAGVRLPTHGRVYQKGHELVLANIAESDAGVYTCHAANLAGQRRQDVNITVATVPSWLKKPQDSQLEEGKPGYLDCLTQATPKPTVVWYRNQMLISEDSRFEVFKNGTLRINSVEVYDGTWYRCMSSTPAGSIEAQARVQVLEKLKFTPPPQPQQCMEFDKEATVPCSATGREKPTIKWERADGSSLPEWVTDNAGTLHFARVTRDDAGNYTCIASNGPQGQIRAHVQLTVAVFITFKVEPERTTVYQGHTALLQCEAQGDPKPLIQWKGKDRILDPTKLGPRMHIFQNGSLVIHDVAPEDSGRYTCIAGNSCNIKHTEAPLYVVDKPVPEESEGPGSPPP
# B1: ADP233 (protein)
# chain: SPGNDNNNVNNDGVVHVLSKNIDVKNLQGTFYEIATNAADKIFPGLACRCTKYEFSGLKRDGNLGYVLINFACARNFIFGEKKSEMTFKLILNKPLDENTATVEEFNAAIYLVQGNQQILLNGNINIIYAELNEQNEFEHLILGGQKSIEPMIIMSKYRTVLLDTYNKLINSLYLAGYEPSLLTWPFIIQTDQTFCD
# modifications: bait human Fc-tagged dimer; N-glycosylation sequons mutated in Plasmodium baits
# B2: ADP222 (protein)
# chain: NVVAPKSAEAVHTLTAKLDTENKAHQKYIDIINGVFSENMENFVFSITTSNGFTCSINKLDVIFDNKVTGMQKVFSDENVQYIKEASLEFKNNLLEYMKGVMPSENDFSNVRKEFQKVCVKYFSELRRKFFQIYRDPNNKNQNEDNVDNHMNIEEISQEFFSGFNPFGTMKIRKEQNPDLSQKDSLILNENNNDALTSADQKNNNMVPMENRAFSYSQQSSHVVSFDGHDEHVEQQEQHSGDNTQEDKDQLMDLPFNKDKVFSTFLKNVALLIEGNCAEAQQQAQEQTQEQTEEQEEEQNEKEIESDKQVQKDGEQKENDVQKKQKANAFTIQFSSSLSRKHISTTCNAASGNVFLRKGNKPFEHFNSPNFENMMKGVFGIIQNPFENGQPTFPFFKNINSISGIGNVDIPKNFMNDFLNNGNDQNTPISS
# modifications: bait human Fc-tagged dimer; N-glycosylation sequons mutated in Plasmodium baits
# B3: ADP70 (protein)
# chain: FENAIKKTKNQENNLALLPIKSTEEEKDDIKNGKDIKKEIDNDKENIKTNNAKDHSTYIKSYLNTNVNDGLKYLFIPSHNSFIKKYSVFNQINDGMLLNEKNDVKNNEDYKNVDYKNVNFLQYHFKELSNYNIANSIDILQEKEGHLDFVIIPHYTFLDYYKHLSYNSIYHKSSTYGKCIAVDAFIKKINEAYDKVKSKCNDIKNDLIATIKKLEHPYDINNKNDDSYRYDISEEIDDKSEETDDETEEVEDSIQDTDSNHAPSNKKKNDLMNRAFKKMMDEYNTKKKKLIKCIKNHENDFNKICMDMKNYGTNLFEQLSCYNNNFCNTNGIRYHYDEYIHKLILSVKSKNLNKDLSDMTNILQQSELLLTNLNKKMGSYIYIDTIKFIHKEMKHIFNRIEYHTKIINDKTKIIQDKIKLNIWRTFQKDELLKRILDMSNEYSLFITSDHLRQMLYNTFYSKEKHLNNIFHHLIYVLQMKFNDVPIKMEYFQTYKKNKPLTQ
# modifications: bait human Fc-tagged dimer; N-glycosylation sequons mutated in Plasmodium baits
# B4: ADP190 (protein)
# chain: IQLHSVNYAPLNYIEIGDTLSNKVGELWHSHLNSFIDIVSTKVVNKLEDDLSNGNNLEKFMILLEDDADIFDASAYEGKNLALIQTEFIRKLKDKFKNSKFGQKLKKLGSKAKEKLLSLYQKHKGKLRHFFSILLKSLVIPIAVQFIRKNLNKWKQRTLEATQKLDEQSKNIAQPIINRLYNSFEDKIEEYSQENKINVEDELNALGQLDKDKQDIQKLEEQEKALLQ
# modifications: bait human Fc-tagged dimer; N-glycosylation sequons mutated in Plasmodium baits
# How the values were obtained:
# Test in all cases: AVEXIS screen signal:noise (double-corrected)
# ADP141 = target: T1, ADP141
# ADP104 = target: T2, ADP104
# ADP296 = target: T3, ADP296
# ADP325 = target: T4, ADP325
# ADP103 = target: T5, ADP103
# ADP101 = target: T6, ADP101
# ADP285 = target: T7, ADP285
# ADP360 = target: T8, ADP360
# ADP110 = target: ADP110
# ADP132 = target: ADP132
binder,measurement,setting,value
B1,binding score,ADP141,5.97
same,binding score,ADP104,7.73
same,binding score,ADP296,6.11
B2,binding score,ADP325,6.14
B3,binding score,ADP103,4530
same,binding score,ADP101,6.6
same,binding score,ADP285,7.62
same,binding score,ADP360,6.35
B4,binding score,ADP110,11.4
same,binding score,ADP132,11.3
